For assay [1], the system named is CTL from HLA-A0201 negative donors. The experiment in a line: Stimulation of peptide-specific allorestricted CTL responses by peptide. Type of assay: cell-based, human. From the text:
Peptide-specific CTL were isolated from HLA-A0201 negative donors using the method described in WO 97/26328. Three peptide-specific lines were established and found to show specific killing of T2 target cells presenting peptide 1218 but not targets presenting control HLA-A0201− binding peptides (HBV(18-27)).
Peptide-specific CTL were isolated from HLA-A0201 negative donors using the method described in WO 97/26328. Three peptide-specific lines were established and found to show specific killing of T2 target cells presenting peptide 1218 but not targets presenting control peptides.

For assay [2], the target named is T1, HLA-A0201 (Homo sapiens, UniProt P04439, D140Y/D185E/D98H/E176V/E277Q/G131W/G231S/I119V/I121R/I166T/I218V/L300P/L318F/N151K/N90K/P208A/P217A/Q86G/Q94H/R138H/R169H/T345S).
T1 construct: ability of peptides to stabilise HLA-A0201 expression in the TAP-deficient T2 cells; endogenous in cells; host or cells: T2 cells (human, TAP-deficient; ATCC CRL 1992)
The experiment in a line: T2 assay: HLA-A0201 binding of peptides (stabilisation of HLA-A0201 expression in TAP-deficient T2 cells). The protocol: By “HLA-binding” peptide we mean a peptide which binds to one or more HLA molecules. Typically, a peptide will show HLA binding in a T2 binding assay when present in a concentration range of 10 μM to 1 nM. Whether or not a peptide of human CD45 is an HLA-binding peptide can be determined using methods known in the art. These methods include the T2 HLA stabilisation assay described in FIG. 1, and the method described by Elvin et al (1993) J. Immunol. Methods 158, 161-171.
Peptide binding was measured using the T2 assay that is based on the ability of peptides to stabilise HLA-A0201 expression in the TAP-deficient T2 cells.
Sixteen peptides of the CD45 molecule were selected and 14 of them we tested in HLA-A0201 binding assays as described in the legend to FIG. 1.

Like-named read-outs stand apart in the source and are kept apart here.

“FLYDVIAST [huCD45/1218, peptide of human CD45]”: the “induction of peptide specific CTL” value in assay [1] (listed as Peptide 1218) was “can induce peptide specific CTL”; in assay [1] (listed as p1218), “reliably generate peptide-specific, allorestricted CTL”. Moreover, the HLA-A0201 binding entry was “binds HLA-A0201” in assay [2], “one of the best binders” in assay [2] (listed as Peptide 1218), “one of the best binding peptides” in assay [2] (listed as p1218) and “one of the best binders” in assay [2] (listed as peptide 1218).

These data come from US20030103946A1, “Immunotherapeutic methods and molecules” (Imperial College Innovations Limited, priority 2000, published 2003).
